Laboratory results from publication PMC3145977, “Thermostabilisation of an Agonist-Bound Conformation of the Human Adenosine A2A Receptor” (Journal of Molecular Biology, 2011).
Changes are numbered by the printed parent chain. Numbers in names are those of the source.

B1: I238A: A2AR point mutant I238A (protein, UniProt P29274 1-412, looked up, variant I238A)
Adenosine receptor A2a: MPIMGSSVYITVELAIAVLAILGNVLVCWAVWLNSNLQNVTNYFVVSLAAADIAVGVLAIPFAITISTGFCAACHGCLFIACFVLVLTQSSIFSLLAIAIDRYIAIRIPLRYNGLVTGTRAKGIIAICWVLSFAIGLTPMLGWNNCGQPKEGKNHSQGCGEGQVACLFEDVVPMNYMVYFNFFACVLVPLLLMLGVYLRIFLAARRQLKQMESQPLPGERARSTLQKEVHAAKSLAIAVGLFALCWLPLHIINCFTFFCPDCSHAPLWLMYLAIVLSHTNSVVNPFIYAYRIREFRQTFRKIIRSHVLRQQEPFKAAGTSARVLAAHGSDGEQVSLRLNGHPPGVWANGSAPHPERRPNGYALGLVSGGSAQESQGNTGLPDVELLSHELKGVCPEPPGLDDPLAQDGAGVS
B2: S90A: A2AR point mutant S90A (protein, UniProt P29274 1-412, looked up, variant S90A)
Adenosine receptor A2a: B1 Adenosine receptor A2a with S90A, A238I
B3: GL29: A2AR mutant L48A-Q89A-T65A- S263A (protein, UniProt P29274 1-412, looked up, variant L48A Q89A T65A S263A)
Adenosine receptor A2a: B1 Adenosine receptor A2a with L48A, T65A, Q89A, A238I, S263A
B4: GL27: A2AR mutant L48A-Q89A-T65A-F83A (protein, UniProt P29274 1-412, looked up, variant L48A Q89A T65A F83A)
Adenosine receptor A2a: B1 Adenosine receptor A2a with L48A, T65A, F83A, Q89A, A238I
B5: GL6: A2AR mutant L48A-F62A (protein, UniProt P29274 1-412, looked up, variant L48A F62A)
Adenosine receptor A2a: B1 Adenosine receptor A2a with L48A, F62A, A238I
B6: GL5: A2AR mutant L48A-V57A (protein, UniProt P29274 1-412, looked up, variant L48A V57A)
Adenosine receptor A2a: B1 Adenosine receptor A2a with L48A, V57A, A238I
B7: GL23: A2AR mutant L48A-Q89A-T65A (protein, UniProt P29274 1-412, looked up, variant L48A Q89A T65A)
Adenosine receptor A2a: B1 Adenosine receptor A2a with L48A, T65A, Q89A, A238I
B8: F242A: A2AR point mutant F242A (protein, UniProt P29274 1-412, looked up, variant F242A)
Adenosine receptor A2a: B1 Adenosine receptor A2a with A238I, F242A
B9: F83A: A2AR point mutant F83A (protein, UniProt P29274 1-412, looked up, variant F83A)
Adenosine receptor A2a: B1 Adenosine receptor A2a with F83A, A238I
B10: V57A: A2AR point mutant V57A (protein, UniProt P29274 1-412, looked up, variant V57A)
Adenosine receptor A2a: B1 Adenosine receptor A2a with V57A, A238I
B11: GL1: A2AR mutant L48A-V12A (protein, UniProt P29274 1-412, looked up, variant L48A V12A)
Adenosine receptor A2a: B1 Adenosine receptor A2a with V12A, L48A, A238I
B12: GL25: A2AR mutant L48A-Q89A-T65A-A50L (protein, UniProt P29274 1-412, looked up, variant L48A Q89A T65A A50L)
Adenosine receptor A2a: B1 Adenosine receptor A2a with L48A, A50L, T65A, Q89A, A238I
B13: A50L: A2AR point mutant A50L (protein, UniProt P29274 1-412, looked up, variant A50L)
Adenosine receptor A2a: B1 Adenosine receptor A2a with A50L, A238I

Experiments:
[^3H]ZM241385-bound A2AR = Thermostability assay of detergent-solubilised receptor with [3H]ZM241385 bound; format: physicochemical, human
Procedure: (§1) An aliquot of E. coli cells (14 mL) was thawed on ice and resupended in 500 μL of buffer A [50 mM Tris–HCl (pH 7.4), 0.4 M NaCl, 250 μg/mL lysozyme (Sigma) and 1 mg/mL DNase I (Sigma), supplemented with complete ethylenediaminetetraacetic acid (EDTA)-free Protease inhibitor cocktail (Roche)] and incubated for 1 h at 4 °C. Samples were then sonicated for 1 min at 4 °C using a cup-horn sonicator. The receptors were solubilised by adding 1% DDM and incubated for 1 h at 4 °C. Insoluble material was removed by centrifugation (5 min, 13,000g, 4 °C). The solubilised receptors were partially purified with Ni-NTA agarose (Qiagen). Agarose beads (300 μL) pre-equilibrated in buffer A were added to 700 μL of solubilised receptor. […].
(§2) The sample was incubated for 45 min at 4 °C, then 30 min at the specified temperature and then 30 min at 4 °C. Receptor-bound and free radioligands were separated as previously described on mini gel-filtration columns.[26] Receptor-bound ligands were transferred to a 96-well plate (PerkinElmer) and mixed with 200 μL of Optiphase supermix (PerkinElmer). The bound ^3H-labeled ligand was determined using a 1450 Microbeta Trilux counter (1 min per sample).

[^3H]NECA-bound A2AR [1] = Thermostability assay of detergent-solubilised receptor with [3H]NECA bound (ligand plus format); format: physicochemical, human; details: for Improvement in stability compared to WT based on t1/2 (decrease in rate of unfolding): [3H]NECA bound, DDM, from Fig. 2c
Procedure: as §1, with “[…]. After solubilisation in DDM, A2AR was bound to Ni^2+-NTA resin, washed to reduce the DDM concentration and then eluted (see Methods). […]. An” for “An”
as §2
(§3) For all the thermostabilisation studies carried out in our laboratory, the apparent Tm is the temperature for which 50% of the solubilised receptor remains folded after 30 min of incubation. The rate constant of the protein denaturation is a function of the temperature, and consequently, thermal denaturation of a protein can be compared to a chemical reaction for which the rate of the reaction is dependant on the temperature. Arrhenius established that any chemical reaction is temperature dependant. […]. The reference measurement representing the total binding activity of the sample A0 was considered to be measured at 4 °C. From the graphical representation t = Log10(t1/2) (Fig. 2c), we could extract a half-life for each construct at any temperature to define the improvement in stability of the various mutants compared to WT A2AR.

[^3H]NECA-bound A2AR [2] = target: T1, [^3H]NECA-bound A2AR (Homo sapiens, UniProt P29274, L48A/Q89A/T65A); assay: as above; format: physicochemical; details: [3H]NECA bound
T1 construct: The library of Ala/Leu scan mutants in the receptor A2aR-(2–316) was expressed from plasmid pRG/III-hs-MBP in E. coli strain DH5α; made in house; host or cells: Escherichia coli DH5α
Procedure: as §1, with “[…]. After solubilisation in DDM, A2AR was bound to Ni^2+-NTA resin, washed to reduce the DDM concentration and then eluted (see Methods). […]. An” for “An”
as §2, §3

T1 sequence (P29274 2-316 L48A/T65A/Q89A): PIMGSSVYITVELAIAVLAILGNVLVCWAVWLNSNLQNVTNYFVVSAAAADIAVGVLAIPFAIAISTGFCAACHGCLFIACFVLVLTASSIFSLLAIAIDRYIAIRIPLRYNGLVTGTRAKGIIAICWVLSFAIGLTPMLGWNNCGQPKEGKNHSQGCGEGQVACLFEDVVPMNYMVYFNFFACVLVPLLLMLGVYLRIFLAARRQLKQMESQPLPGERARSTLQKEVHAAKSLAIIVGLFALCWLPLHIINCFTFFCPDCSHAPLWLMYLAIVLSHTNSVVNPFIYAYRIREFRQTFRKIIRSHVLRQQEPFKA

Molecule	Apparent Tm, Antagonist [^3H]ZM241385 ([^3H]ZM241385-bound A2AR) [°C]	ΔTm, Antagonist [^3H]ZM241385 ([^3H]ZM241385-bound A2AR)	Apparent Tm in DDM, Single measurement ([^3H]NECA-bound A2AR [1]) [°C]	also measured
B1	36	+ 4 °C		
B2	32	0 °C		
B3				Apparent Tm in DM, Single measurement ([^3H]NECA-bound A2AR [1]): 44.5 °C
B4				Apparent Tm in DM, Single measurement ([^3H]NECA-bound A2AR [1]): 44 °C
B5			45	
B6			41.5	
B7			50	Improvement in stability compared to WT based on t1/2 (decrease in rate of unfolding) ([^3H]NECA-bound A2AR [1]): 226 fold; Improvement in stability compared to WT based on t1/2 (decrease in rate of unfolding) ([^3H]NECA-bound A2AR [1]; listed as A2AR-GL23): about 230 fold; Decrease in stability in DM compared with DDM ([^3H]NECA-bound A2AR [2]): 7.7 °C
B8				Binding of [^3H]ZM241385 ([^3H]ZM241385-bound A2AR; at 4 °C, 100 nM radioligand): did not bind
B9	16.5	− 15.5 °C		
B10	38	+ 6 °C		
B11			45.5	
B12				Apparent Tm in DM, Single measurement ([^3H]NECA-bound A2AR [1]): 44.5 °C
B13	38.5	+ 6.5 °C		
